Laboratory results taken from publication PMC8897274 (Structure (London, England : 1993), 2021).

B1: DNA ligase from S. solfataricus (Lig), wild type (enzyme)
chain: MEFKVIAEYFDKLEKISSRLQLTALLADLLSKSDKTIIDKVVYIIQGKLWPDFLGYPELGIGEKFLIKAISIATNTDENSVENLYKTIGDLGEVARRLKSKQQSTGILGFLGTTSKESLTVDEVYSTLSKVALTTGEGSRDLKIRLLAGLLKKADPLEAKFLVRFVEGRLRVGIGDATVLDAMAIAFGGGQSASEIIERAYNLRADLGNIAKIIVEKGIEALKTLKPQVGIPIRPMLAERLSNPEEILKKMGGNAIVDYKYDGERAQIHKKEDKIFIFSRRLENITSQYPDVVDYVSKYIEGKEFIIEGEIVAIDPESGEMRPFQELMHRKRKSDIYEAIKEYPVNVFLFDLMYYEDVDYTTKPLEARRKLLESIVKPNDYVKIAHHIQANNVEDLKSFFYRAISEGGEGVMVKAIGKDAIYQAGARGWLWIKLKRDYQSEMADTVDLVVVGGFYGKGKRGGKISSLLMAAYNPKTDSFESVCKVASGFSDEQLDELQKKLMEIKRDVKHPRVNSKMEPDIWVEPVYVAEIIGSEITISPLHTCCQDVVEKDAGLSIRFPRFIRWRDDKSPEDATTTDEILEMYNKQPKKKIESPAVDESV

Tests used:
[1] = target: T1, PCNA_(1–2-3) heterotrimer of S. solfataricus (S. solfataricus, UniProt P57766 1-249; Q97Z84 1-245; P57765 1-244); assay: SEC-MALS
T1 sequence 1: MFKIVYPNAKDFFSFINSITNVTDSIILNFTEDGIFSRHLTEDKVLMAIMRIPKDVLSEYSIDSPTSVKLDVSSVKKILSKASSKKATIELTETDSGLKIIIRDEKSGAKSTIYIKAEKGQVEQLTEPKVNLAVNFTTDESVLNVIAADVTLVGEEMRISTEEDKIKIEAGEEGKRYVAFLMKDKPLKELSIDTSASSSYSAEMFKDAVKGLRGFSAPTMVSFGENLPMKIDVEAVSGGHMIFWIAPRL
T1 sequence 2: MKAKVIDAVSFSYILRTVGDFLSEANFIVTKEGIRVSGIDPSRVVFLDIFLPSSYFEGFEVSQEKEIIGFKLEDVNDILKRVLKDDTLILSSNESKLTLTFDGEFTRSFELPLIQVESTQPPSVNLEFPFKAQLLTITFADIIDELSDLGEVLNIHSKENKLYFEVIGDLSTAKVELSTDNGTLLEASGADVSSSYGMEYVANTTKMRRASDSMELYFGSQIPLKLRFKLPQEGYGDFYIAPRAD
T1 sequence 3: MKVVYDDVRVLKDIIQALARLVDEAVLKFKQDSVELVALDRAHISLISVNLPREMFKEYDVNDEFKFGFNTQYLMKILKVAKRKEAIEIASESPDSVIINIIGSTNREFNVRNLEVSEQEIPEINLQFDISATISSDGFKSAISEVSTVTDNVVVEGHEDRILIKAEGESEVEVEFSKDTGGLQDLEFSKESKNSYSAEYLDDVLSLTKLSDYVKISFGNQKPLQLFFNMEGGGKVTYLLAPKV

[2] = target: T1, PCNA_(1–2-3) heterotrimer of S. …; assay: SEC
[3] = target: T2, PCNA1 subunit of S. solfataricus PCNA (S. solfataricus, UniProt P57766 1-249); assay: cryo-EM structure
T2 sequence: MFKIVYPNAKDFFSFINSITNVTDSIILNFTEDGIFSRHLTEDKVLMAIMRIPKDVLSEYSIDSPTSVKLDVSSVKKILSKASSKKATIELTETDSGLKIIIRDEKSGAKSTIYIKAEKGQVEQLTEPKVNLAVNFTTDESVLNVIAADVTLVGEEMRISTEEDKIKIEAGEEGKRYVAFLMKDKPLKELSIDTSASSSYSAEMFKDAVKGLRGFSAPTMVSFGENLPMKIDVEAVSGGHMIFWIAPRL

[4] = target: B1; assay: negative stain electron microscopy
[5] = target: T3, PCNA heterotrimer containing PCNA2 S42C (S. solfataricus, UniProt P57766 1-249; Q97Z84 1-245; P57765 1-244, S42C); assay: cross-linking
T3 sequence 1: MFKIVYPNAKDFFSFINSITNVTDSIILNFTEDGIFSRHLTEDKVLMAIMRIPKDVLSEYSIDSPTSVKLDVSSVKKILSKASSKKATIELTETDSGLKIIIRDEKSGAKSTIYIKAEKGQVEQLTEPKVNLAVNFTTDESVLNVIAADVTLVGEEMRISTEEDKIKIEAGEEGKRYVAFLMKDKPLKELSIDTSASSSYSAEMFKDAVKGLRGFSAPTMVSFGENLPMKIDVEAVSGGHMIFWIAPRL
T3 sequence 2: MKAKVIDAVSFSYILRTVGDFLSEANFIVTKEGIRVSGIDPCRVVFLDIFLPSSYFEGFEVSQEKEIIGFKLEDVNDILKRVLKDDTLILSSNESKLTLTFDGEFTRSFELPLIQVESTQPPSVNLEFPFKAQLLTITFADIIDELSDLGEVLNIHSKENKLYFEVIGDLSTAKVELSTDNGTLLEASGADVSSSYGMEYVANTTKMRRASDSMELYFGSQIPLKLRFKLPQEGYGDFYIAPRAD
T3 sequence 3: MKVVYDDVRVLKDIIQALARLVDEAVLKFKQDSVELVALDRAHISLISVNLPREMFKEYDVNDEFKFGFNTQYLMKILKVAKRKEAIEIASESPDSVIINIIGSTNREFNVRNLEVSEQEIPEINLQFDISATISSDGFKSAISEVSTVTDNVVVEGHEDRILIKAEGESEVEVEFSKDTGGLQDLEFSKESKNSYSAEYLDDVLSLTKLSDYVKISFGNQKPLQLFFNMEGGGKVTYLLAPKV

B1
stoichiometry N [1]: 1

B2: Lig 145 R-D mutant (enzyme, S. solfataricus)
chain: MEFKVIAEYFDKLEKISSRLQLTALLADLLSKSDKTIIDKVVYIIQGKLWPDFLGYPELGIGEKFLIKAISIATNTDENSVENLYKTIGDLGEVARRLKSKQQSTGILGFLGTTSKESLTVDEVYSTLSKVALTTGEGSRDLKIDLLAGLLKKADPLEAKFLVRFVEGRLRVGIGDATVLDAMAIAFGGGQSASEIIERAYNLRADLGNIAKIIVEKGIEALKTLKPQVGIPIRPMLAERLSNPEEILKKMGGNAIVDYKYDGERAQIHKKEDKIFIFSRRLENITSQYPDVVDYVSKYIEGKEFIIEGEIVAIDPESGEMRPFQELMHRKRKSDIYEAIKEYPVNVFLFDLMYYEDVDYTTKPLEARRKLLESIVKPNDYVKIAHHIQANNVEDLKSFFYRAISEGGEGVMVKAIGKDAIYQAGARGWLWIKLKRDYQSEMADTVDLVVVGGFYGKGKRGGKISSLLMAAYNPKTDSFESVCKVASGFSDEQLDELQKKLMEIKRDVKHPRVNSKMEPDIWVEPVYVAEIIGSEITISPLHTCCQDVVEKDAGLSIRFPRFIRWRDDKSPEDATTTDEILEMYNKQPKKKIESPAVDESV
binding result [2]: binds

B3: Lig 145 R-L mutant (enzyme, S. solfataricus)
chain: MEFKVIAEYFDKLEKISSRLQLTALLADLLSKSDKTIIDKVVYIIQGKLWPDFLGYPELGIGEKFLIKAISIATNTDENSVENLYKTIGDLGEVARRLKSKQQSTGILGFLGTTSKESLTVDEVYSTLSKVALTTGEGSRDLKILLLAGLLKKADPLEAKFLVRFVEGRLRVGIGDATVLDAMAIAFGGGQSASEIIERAYNLRADLGNIAKIIVEKGIEALKTLKPQVGIPIRPMLAERLSNPEEILKKMGGNAIVDYKYDGERAQIHKKEDKIFIFSRRLENITSQYPDVVDYVSKYIEGKEFIIEGEIVAIDPESGEMRPFQELMHRKRKSDIYEAIKEYPVNVFLFDLMYYEDVDYTTKPLEARRKLLESIVKPNDYVKIAHHIQANNVEDLKSFFYRAISEGGEGVMVKAIGKDAIYQAGARGWLWIKLKRDYQSEMADTVDLVVVGGFYGKGKRGGKISSLLMAAYNPKTDSFESVCKVASGFSDEQLDELQKKLMEIKRDVKHPRVNSKMEPDIWVEPVYVAEIIGSEITISPLHTCCQDVVEKDAGLSIRFPRFIRWRDDKSPEDATTTDEILEMYNKQPKKKIESPAVDESV
binding result [2]: binds

B4: PCNA2 subunit of S. solfataricus PCNA (natural protein)
chain: MKAKVIDAVSFSYILRTVGDFLSEANFIVTKEGIRVSGIDPSRVVFLDIFLPSSYFEGFEVSQEKEIIGFKLEDVNDILKRVLKDDTLILSSNESKLTLTFDGEFTRSFELPLIQVESTQPPSVNLEFPFKAQLLTITFADIIDELSDLGEVLNIHSKENKLYFEVIGDLSTAKVELSTDNGTLLEASGADVSSSYGMEYVANTTKMRRASDSMELYFGSQIPLKLRFKLPQEGYGDFYIAPRAD
binding result [3]: binds | binding result [4]: binds

B5: Lig 337 Y-C mutant (enzyme, S. solfataricus)
chain: MEFKVIAEYFDKLEKISSRLQLTALLADLLSKSDKTIIDKVVYIIQGKLWPDFLGYPELGIGEKFLIKAISIATNTDENSVENLYKTIGDLGEVARRLKSKQQSTGILGFLGTTSKESLTVDEVYSTLSKVALTTGEGSRDLKIRLLAGLLKKADPLEAKFLVRFVEGRLRVGIGDATVLDAMAIAFGGGQSASEIIERAYNLRADLGNIAKIIVEKGIEALKTLKPQVGIPIRPMLAERLSNPEEILKKMGGNAIVDYKYDGERAQIHKKEDKIFIFSRRLENITSQYPDVVDYVSKYIEGKEFIIEGEIVAIDPESGEMRPFQELMHRKRKSDICEAIKEYPVNVFLFDLMYYEDVDYTTKPLEARRKLLESIVKPNDYVKIAHHIQANNVEDLKSFFYRAISEGGEGVMVKAIGKDAIYQAGARGWLWIKLKRDYQSEMADTVDLVVVGGFYGKGKRGGKISSLLMAAYNPKTDSFESVCKVASGFSDEQLDELQKKLMEIKRDVKHPRVNSKMEPDIWVEPVYVAEIIGSEITISPLHTCCQDVVEKDAGLSIRFPRFIRWRDDKSPEDATTTDEILEMYNKQPKKKIESPAVDESV
binding result [5]: binds

B6: Lig 338 E-C mutant (enzyme, S. solfataricus)
chain: MEFKVIAEYFDKLEKISSRLQLTALLADLLSKSDKTIIDKVVYIIQGKLWPDFLGYPELGIGEKFLIKAISIATNTDENSVENLYKTIGDLGEVARRLKSKQQSTGILGFLGTTSKESLTVDEVYSTLSKVALTTGEGSRDLKIRLLAGLLKKADPLEAKFLVRFVEGRLRVGIGDATVLDAMAIAFGGGQSASEIIERAYNLRADLGNIAKIIVEKGIEALKTLKPQVGIPIRPMLAERLSNPEEILKKMGGNAIVDYKYDGERAQIHKKEDKIFIFSRRLENITSQYPDVVDYVSKYIEGKEFIIEGEIVAIDPESGEMRPFQELMHRKRKSDIYCAIKEYPVNVFLFDLMYYEDVDYTTKPLEARRKLLESIVKPNDYVKIAHHIQANNVEDLKSFFYRAISEGGEGVMVKAIGKDAIYQAGARGWLWIKLKRDYQSEMADTVDLVVVGGFYGKGKRGGKISSLLMAAYNPKTDSFESVCKVASGFSDEQLDELQKKLMEIKRDVKHPRVNSKMEPDIWVEPVYVAEIIGSEITISPLHTCCQDVVEKDAGLSIRFPRFIRWRDDKSPEDATTTDEILEMYNKQPKKKIESPAVDESV
binding result [5]: binds
